According to paper PMC4087533 (Nature, 2014):

Key:
[1] = target: mechanosensitive channel of large conductance (MscL) from Mycobacterium tuberculosis (tag-removed) (Mycobacterium tuberculosis); test: native MS
[2] = target: the molecule itself; test: native MS

mechanosensitive channel of large conductance (MscL) from Mycobacterium tuberculosis (tag-removed) (natural protein), sequence (A5U127 whole entry): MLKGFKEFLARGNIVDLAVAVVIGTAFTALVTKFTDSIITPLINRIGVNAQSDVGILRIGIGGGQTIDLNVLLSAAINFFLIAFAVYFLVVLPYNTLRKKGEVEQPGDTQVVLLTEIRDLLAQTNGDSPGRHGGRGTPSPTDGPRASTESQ

Molecule | stoichiometry N [1] | stoichiometry N [2]
mechanosensitive channel of large conductance (MscL) from Mycobacterium tuberculosis (tag-removed) (natural protein) | 5 | –
ammonia channel AmtB from E. coli (tag-removed) (natural protein) GASVADKADNAFMMICTALVLFMTIPGIALFYGGLIRGKNVLSMLTQVTVTFALVCILWVVYGYSLAFGEGNNFFGNINWLMLKNIELTAVMGSIYQYIHVAFQGSFACITVGLIVGALAERIRFSAVLIFVVVWLTLSYIPIAHMVWGGGLLASHGALDFAGGTVVHINAAIAGLVGAYLIGKRVGFGKEAFKPHNLPMVFTGTAILYIGWFGFNAGSAGTANEIAALAFVNTVVATAAAILGWIFGEWALRGKPSLLGACSGAIAGLVGVTPACGYIGVGGALIIGVVAGLAGLWGVTMLKRLLRVDDPCDVFGVHGVCGIVGCIMTGIFAASSLGGVGFAEGVTMGHQLLVQLESIAITIVWSGVVAFIGYKLADLTVGLRVPEEQEREGLDVNSHGENAYNA | – | 3
